These results are taken from paper PMC4104964.

The test deals with yeast Mediator (yMED), core, devoid of the CKM (yeast (endogenous in strain BJ2168)) (UniProt P38782). The experiment in a line: single-particle EM.

In the case of “recombinant GST-labeled CTD of RNAPII (from UniProt P04050 1-1733) (domain or fragment)”, the fraction of single yMED images with GST-CTD density came out at 10%.
